Substitutions are numbered along the chain they refer to. Numbers in names are those of the source. Like-named read-outs stand apart in the source and are kept apart here.
Legend:
human CD40 on cells [1] = biological target: T1, human CD40 on cells (human, UniProt P25942 21-277); experiment: FCM on Ramos cells (CD40-positive), MFI [B]
T1 construct: Endogenous CD40 of Ramos cells (and of monocyte-derived dendritic cells); also called CD40 on Ramos cells; CD40 on human induced dendritic cells
Description: The reactivity of each of various bispecific antibodies produced in Example 16 with HepG2 cells and Ramos cells was evaluated by FCM in the same manner as in Example 7.

[2] = biological target: T2, Human GPC3-His (manufactured by ACROBiosystems, Inc.) (human, UniProt P51654 25-559); experiment: SPR (Biacore T100), antibody captured on anti-human IgG, antigen as analyte, single cycle kinetics
T2 construct: Bought protein; also called hGPC3-His; not shown: His tag
Description: (§1) An anti-human IgG antibody was immobilized on a CMS sensor chip (manufactured by GE Healthcare, Inc.) using Human Antibody Capture Kit (manufactured by GE Healthcare, Inc.) according to the package insert. A test antibody prepared at 2 μg/mL was added to a flow cell for 10 seconds at a flow rate of 10 μL/min.
(§2) The measurement was performed by a single cycle kinetics method.
(§3) The obtained sensorgram was analyzed using Bia Evaluation Software (manufactured by GE Healthcare, Inc.), and the kinetic constant of each antibody was calculated.

[3] = biological target: T2, Human GPC3-His (manufactured by …); experiment: as above; remark: listed apart in the source
Description: as §1, §2

human CD40 on cells [4] = biological target: T1, human CD40 on cells; experiment: FCM on Ramos cells (CD40-positive, GPC3-negative)
Description: (§4) Ramos cells were suspended in SB at a cell density of 1×10⁶ cells/mL, and the suspension was dispensed in a 96-well round bottom plate (manufactured by Falcon, Inc.) at 100 μL/well.
(§5) After further centrifugation (2000 rpm, 4° C., 2 minutes), the supernatant was removed, and the pellet was washed 3 times with 200 μL/well of SB, and then, APC-conjugated AffiniPure F(ab′)₂ Goat Anti-Human IgG, Fcγ (manufactured by Jackson ImmunoResearch Laboratories, Inc.) diluted 100 times was added thereto at 100 μL/well, and the plate was incubated at ice temperature for 30 minutes. After washing twice with SB, the cells were suspended in 100 μL/well of SB, and the fluorescence intensity of each cell was measured using a flow cytometer FACSCANTO II (manufactured by Becton, Dickinson and Company).

[5] = biological target: T2, Human GPC3-His (manufactured by …); experiment: SPR (Biacore T100), antibody captured on anti-human IgG, antigen as analyte, single cycle kinetics; first run (Table 8)
Description: as §1, §2, §3

[6] = biological target: T2, Human GPC3-His (manufactured by …); experiment: SPR (Biacore T100), antibody captured on anti-human IgG, antigen as analyte, single cycle kinetics; second run (Table 9)
Description: as §1, §2

[7] = biological target: T3, human GPC3 on a cell membrane (human, UniProt P51654 25-554); experiment: FCM on HepG2 cells (GPC3-positive), APC anti-human IgG Fc, MFI [B]
T3 construct: HepG2 and HuH-7 carry the endogenous protein; also called hGPC3; GPC3 on HepG2 cells, HuH-7 cells, MC-38/hGPC3 cells and Expi293F cells transiently expressing human GPC3

human CD40 on cells [8] = biological target: T1, human CD40 on cells; experiment: FCM on Ramos cells (CD40-positive, GPC3-negative), antibody at 0.01-10 µg/mL, APC anti-human IgG Fc, MFI [A]
Description: as §4, §5

human CD40-GST protein = biological target: T4, human CD40-GST protein (human, UniProt P25942 21-193); experiment: phage ELISA, CD40-GST immobilised on the plate
T4 construct: not shown: GST region of the N5 vector
Description: (§6) In the ELISA, MAXISORP (manufactured by NUNC, Inc.) in which the human or monkey CD40-GST in Example 1 was immobilized on each well and a portion to which the human or monkey CD40-GST is not bound was blocked using SuperBlock Blockig Buffer (manufactured by Thermo Fisher, Inc.) was used. To each well, each phage clone was added and reacted at room temperature for 30 minutes, and thereafter, each well was washed 3 times with PBS-T.
(§7) Subsequently, an anti-M13 antibody (manufactured by GE Healthcare, Inc.) labeled with horseradish peroxidase was diluted 5000 times with PBS-T containing 10% Block Ace (manufactured by Dainippon Pharmaceutical Co., Ltd.), and the resultant was added in an amount of 50 μL to each well, and incubated at room temperature for 30 minutes. After the microplate was washed four times with PBS-T, a TMB chromogenic substrate solution (manufactured by DAKO, Inc.) was added in an amount of 50 μL to each well and incubated at room temperature for 10 minutes.

monkey CD40-GST protein = biological target: T5, monkey CD40-GST protein (monkey, UniProt P25942 21-193 (human entry)); experiment: phage ELISA, CD40-GST immobilised on the plate
T5 construct: it may begin with a signal peptide; not shown: GST region of the N5 vector
T5 chain: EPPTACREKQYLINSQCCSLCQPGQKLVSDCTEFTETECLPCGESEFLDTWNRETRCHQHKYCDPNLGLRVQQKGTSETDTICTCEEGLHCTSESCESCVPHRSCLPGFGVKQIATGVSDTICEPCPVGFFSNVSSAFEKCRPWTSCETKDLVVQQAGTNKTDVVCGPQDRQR
Description: as §6, §7

human CD40 on cells [9] = biological target: T1, human CD40 on cells; experiment: FCM on Ramos cells (CD40-positive, GPC3-negative), APC anti-human IgG Fc, MFI [A]
Description: as §4, §5

T2 sequence (P51654 25-559 limits assumed): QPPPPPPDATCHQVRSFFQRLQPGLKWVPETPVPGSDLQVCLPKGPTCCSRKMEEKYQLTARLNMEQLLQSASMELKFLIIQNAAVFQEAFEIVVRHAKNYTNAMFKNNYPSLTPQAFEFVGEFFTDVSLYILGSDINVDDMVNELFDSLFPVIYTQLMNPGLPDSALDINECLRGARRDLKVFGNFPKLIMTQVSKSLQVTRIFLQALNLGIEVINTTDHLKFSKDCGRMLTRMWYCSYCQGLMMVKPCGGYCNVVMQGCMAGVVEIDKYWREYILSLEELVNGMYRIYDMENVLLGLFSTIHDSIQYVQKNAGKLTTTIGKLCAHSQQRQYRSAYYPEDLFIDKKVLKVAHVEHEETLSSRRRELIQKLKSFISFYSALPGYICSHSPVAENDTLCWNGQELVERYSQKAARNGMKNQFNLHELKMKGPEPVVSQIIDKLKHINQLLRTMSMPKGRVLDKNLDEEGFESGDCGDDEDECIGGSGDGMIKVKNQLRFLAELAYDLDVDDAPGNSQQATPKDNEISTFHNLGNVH
T3 sequence (P51654 25-554 limits assumed): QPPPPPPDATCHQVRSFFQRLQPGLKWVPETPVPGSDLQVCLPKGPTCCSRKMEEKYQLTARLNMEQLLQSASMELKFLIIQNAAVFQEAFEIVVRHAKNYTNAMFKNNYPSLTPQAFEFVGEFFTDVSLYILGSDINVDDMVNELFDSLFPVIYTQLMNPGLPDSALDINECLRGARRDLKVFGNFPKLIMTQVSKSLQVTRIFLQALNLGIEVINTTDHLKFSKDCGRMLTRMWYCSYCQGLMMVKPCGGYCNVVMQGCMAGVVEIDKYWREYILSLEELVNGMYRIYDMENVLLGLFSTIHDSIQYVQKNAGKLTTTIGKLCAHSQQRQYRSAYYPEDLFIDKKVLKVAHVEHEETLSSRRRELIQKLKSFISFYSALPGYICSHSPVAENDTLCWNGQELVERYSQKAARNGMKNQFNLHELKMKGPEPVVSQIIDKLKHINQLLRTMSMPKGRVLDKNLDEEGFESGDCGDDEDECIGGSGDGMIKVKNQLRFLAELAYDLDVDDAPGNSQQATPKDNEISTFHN

B1: conventional anti-GPC3 antibody GC33 (IgG4PE R409K) (antibody, V domains shown)
VH: QVQLQQSGAELVRPGASVKLSCKASGYTFTDYEMHWVKQTPVHGLKWIGALDPKTGDTAYSQKFKGKATLTADKSSSTAYMELRSLTSEDSAVYYCTRFYSYTYWGQGTLVTVSA
VL: DVVMTQTPLSLPVSLGDQASISCRSSQSLVHSNGNTYLHWYLQKPGQSPKLLIYKVSNRFSGVPDRFSGSGSGTDFTLKISRVEAEDLGVYFCSQNTHVPPTFGSGTKLEIK
notes: Variable regions from WO 2006/006693; not shown: constant region of 'a κ chain'
binding result (human CD40 on cells [1]): no binding (tested: 10 µg/mL) | Kd [2]: 2.6 nM | koff [2]: 0.000378 s⁻¹ | kon [2]: 145000 M⁻¹ s⁻¹ | Kd [3]: 1.46 nM | koff [3]: 0.000299 s⁻¹ | kon [3]: 205000 M⁻¹ s⁻¹

B2: conventional anti-GPC3 antibody YP7 (IgG4PE R409K) (antibody, V domains shown)
VH: EVQLVETGGGMVQPEGSLKLSCAASGFTFNKNAMNWVRQAPGKGLEWVARIRNKTNNYATYYADSVKARFTISRDDSQSMLYLQMNNLKIEDTAMYYCVAGNSFAYWGQGTLVTVSA
VL: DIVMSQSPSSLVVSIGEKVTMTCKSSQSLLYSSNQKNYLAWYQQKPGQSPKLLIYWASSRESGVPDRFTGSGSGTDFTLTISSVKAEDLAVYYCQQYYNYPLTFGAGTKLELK
notes: Variable regions from WO 2013/181543; not shown: constant region of 'a κ chain'
binding result (human CD40 on cells [1]): no binding (tested: 10 µg/mL) | Kd [2]: 0.861 nM | koff [2]: 0.000186 s⁻¹ | kon [2]: 217000 M⁻¹ s⁻¹

B3: anti-GPC3 antibody GPngs18 (antibody, human IgG4 S228P, kappa, V domains shown)
VH: EVQLVESGGGLVQPGGSLRLSCAASGFTFSSYSMNWVRQAPGKGLEWVSYIRSDSRTIKYADSVKGRFTISRDNAKNSLFLQMNSLRDEDTAVYYCARWEWELDAFDIWGQGTMVTVSS
VL: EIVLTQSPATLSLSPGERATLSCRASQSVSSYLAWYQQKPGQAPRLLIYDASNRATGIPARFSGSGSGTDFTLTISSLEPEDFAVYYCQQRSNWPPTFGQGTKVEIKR
notes: IgG4PE R409K; light chain with L6 as VL
binding result (human CD40 on cells [4]): no binding (tested: 10 µg/mL) | Kd [3]: 0.39 nM | koff [3]: 0.000764 s⁻¹ | kon [3]: 1.96e+06 M⁻¹ s⁻¹

B4: conventional anti-GPC3 antibody HN3 (IgG4PE R409K) (antibody, V domains shown)
VH: QVQLVQSGGGLVQPGGSLRLSCAASYFDFDSYEMSWVRQAPGKGLEWIGSIYHSGSTYYNPSLKSRVTISRDNSKNTLYLQMNTLRAEDTATYYCARVNMDRFDYWGQGTLVTVSS
notes: Variable region from WO 2012/145469
binding result (human CD40 on cells [1]): no binding (tested: 10 µg/mL) | Kd [2]: 13.2 nM | Kd [3]: 24.4 nM | kon [5]: > 1e+07 M⁻¹ s⁻¹ | kon [6]: > 1e+07 M⁻¹ s⁻¹

B5: anti-CD40 monoclonal antibody R1090S55A (antibody, V domains shown)
VH: EVQLVQSGAEVKKPGESLKISCKGSGYSFIIYWIGWVRQMPGKGLEWMGIIYPNDADTRYSPSFQGQVTISADKSISTAYLQWSSLKASDTAMYYCVRLGTRDWFDPWGQGTLVTVSS
VL: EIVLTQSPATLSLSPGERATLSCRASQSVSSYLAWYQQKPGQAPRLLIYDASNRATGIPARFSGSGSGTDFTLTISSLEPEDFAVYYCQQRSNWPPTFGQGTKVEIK
binding result [7]: no binding (tested: 10 µg/mL) | binding result (human CD40 on cells [8]): binds

B6: R1090S55A monoclonal phage clone (scFv displayed on M13 phage) (scFv, V domains shown)
VH: B5 VH
VL: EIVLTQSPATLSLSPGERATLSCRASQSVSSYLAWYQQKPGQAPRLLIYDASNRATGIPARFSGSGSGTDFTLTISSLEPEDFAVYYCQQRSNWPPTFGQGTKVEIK
notes: Form in the screening ELISA: scFv on phage (phagemid pCANTAB 5E); also called R1090S55A phage clone
binding result (human CD40-GST protein): binds | binding result (monkey CD40-GST protein): binds

B7: anti-GPC3 antibody GPngs62 (antibody, human IgG4 S228P, kappa, V domains shown)
VH: EVQLVESGGGLVQPGGSLRLSCAASGFTFSSYARSWVRQAPGKGLEWVSAISGGGGRTYYADSVKGRFTISRDNSQNTLYLQMNSLRAEDTAVYYCAKNYYGSGSASYWYFDLWGRGTLVTVSS
VL: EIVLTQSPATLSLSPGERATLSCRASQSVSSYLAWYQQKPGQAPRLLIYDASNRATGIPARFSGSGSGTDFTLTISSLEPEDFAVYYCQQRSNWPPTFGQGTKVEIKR
notes: as for B3
binding result (human CD40 on cells [4]): no binding (tested: 10 µg/mL) | Kd [3]: 5.36 nM | koff [3]: 0.031 s⁻¹ | kon [3]: 5.74e+06 M⁻¹ s⁻¹

B8: anti-CD40 monoclonal antibody 21.4.1 (CP-870,893) (antibody, V domains shown)
VH: not shown
VL: DIQMTQSPSSVSASVGDRVTITCRASQGIYSWLAWYQQKPGKAPNLLIYTASTLQSGVPSRFSGSGSGTDFTLTISSLQPEDFATYYCQQANIFPLTFGGGTKVEIK
notes: Constant region of human IgG2 (N5KG2 vector); positive control agonistic anti-CD40 antibody
binding result [7]: no binding (tested: 10 µg/mL)

B9: anti-GPC3 antibody GpA6062 (antibody, human IgG4 S228P, kappa, V domains shown)
VH: EVQLVETGGGLVQPGGSLRLSCAASGFSFSSYAMNWVRQAPGKGLEWVSYITSGGSSRYYADSVKGRFTISRDNAKNSLYLQMNSLRDEDTAVYYCARGTYYYGSGNYFLFDYWGQGTTVTVSS
VL: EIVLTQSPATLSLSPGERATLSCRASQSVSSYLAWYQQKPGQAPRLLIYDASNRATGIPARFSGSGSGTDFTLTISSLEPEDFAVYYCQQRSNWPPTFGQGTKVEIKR
notes: as for B3
binding result (human CD40 on cells [9]): no binding (tested: 10 µg/mL) | Kd [3]: 6.33 nM | koff [3]: 0.00175 s⁻¹ | kon [3]: 276000 M⁻¹ s⁻¹

B10: anti-GPC3 antibody GpA6005 (antibody, human IgG4 S228P, kappa, V domains shown)
VH: B9 VH with E1Q, T7S, S28T, A33S, T52K, G54S, R58T, Y80N, Y108F, T119L
VL: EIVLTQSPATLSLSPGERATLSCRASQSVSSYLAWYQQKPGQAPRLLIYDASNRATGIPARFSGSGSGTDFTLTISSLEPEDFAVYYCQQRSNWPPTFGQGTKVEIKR
notes: as for B3
binding result (human CD40 on cells [9]): no binding (tested: 10 µg/mL) | Kd [3]: 0.762 nM | koff [3]: 0.000347 s⁻¹ | kon [3]: 456000 M⁻¹ s⁻¹

B11: anti-GPC3 antibody GpA6014 (antibody, human IgG4 S228P, kappa, V domains shown)
VH: B9 VH with E1Q, V2M, E6Q, T7S, Y113H, T119M
VL: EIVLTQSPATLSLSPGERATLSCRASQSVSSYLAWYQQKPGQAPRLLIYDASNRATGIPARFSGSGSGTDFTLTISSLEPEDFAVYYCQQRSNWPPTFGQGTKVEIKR
notes: as for B3
binding result (human CD40 on cells [9]): no binding (tested: 10 µg/mL) | Kd [3]: 6.35 nM | koff [3]: 0.00189 s⁻¹ | kon [3]: 297000 M⁻¹ s⁻¹

Reference: US20220220216A1 (Kyowa Kirin, published 2022)
